Experimental findings from article PMC2871789, “Characterization of the Interaction and Cross-Regulation of Three Mycobacterium tuberculosis RelBE Modules” are described below.

Series [1] addresses T1, RelF;RelG (Mycobacterium tuberculosis …, UniProt O33347;O33348 1-93;1-87, |).
T1 sequence 1: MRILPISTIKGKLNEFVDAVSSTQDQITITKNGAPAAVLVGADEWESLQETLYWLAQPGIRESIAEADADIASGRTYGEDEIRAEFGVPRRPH
T1 sequence 2: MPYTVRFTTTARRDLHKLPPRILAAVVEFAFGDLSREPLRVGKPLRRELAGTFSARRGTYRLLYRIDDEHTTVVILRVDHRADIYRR
Nature of the series: EMSA. The conditions noted are these: protein: recombinant;recombinant; tags: His or GST;His or GST; label: 5'-32P; blunt.

In series [2] the target is T2, RelB;RelE (Mycobacterium tuberculosis …, UniProt O50462;O50461 1-89;1-97, |).
T2 sequence 1: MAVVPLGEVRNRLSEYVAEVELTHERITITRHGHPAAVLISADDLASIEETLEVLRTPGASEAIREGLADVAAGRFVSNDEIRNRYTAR
T2 sequence 2: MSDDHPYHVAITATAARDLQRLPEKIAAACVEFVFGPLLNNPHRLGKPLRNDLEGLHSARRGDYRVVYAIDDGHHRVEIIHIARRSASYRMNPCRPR
Nature of the series: EMSA; 1.8-15 uM titration. The conditions noted are these: protein: recombinant;recombinant; tags: His (modified pET28a);His or GST; chain copies: 2;2; label: 5'-32P; blunt.

For series [3], the target named is T3, RelJ (Mycobacterium tuberculosis H37Rv, UniProt P9WF25 1-91).
T3 sequence: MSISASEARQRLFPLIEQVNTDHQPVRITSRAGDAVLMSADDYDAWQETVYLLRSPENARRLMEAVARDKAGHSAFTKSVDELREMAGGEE
Nature of the series: EMSA; 7.5 uM RelJ alone. The settings on record: protein: recombinant; tags: His or GST; chain copies: 2; label: 5'-32P; blunt.

Series [4] addresses RelJ;RelK (Mycobacterium tuberculosis …, UniProt P9WF25;P9WF09 1-91;1-85, |). Nature of the series: EMSA; 1.8-15 uM titration. The settings on record: protein: recombinant;recombinant; tags: His or GST;His or GST; label: 5'-32P; blunt.

Sequence of RelJ;RelK (P9WF09 whole entry, one chain of several): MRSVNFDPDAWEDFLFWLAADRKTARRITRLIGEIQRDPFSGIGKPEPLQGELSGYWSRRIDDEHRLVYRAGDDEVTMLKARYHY

B1: 2865p7 (dsDNA)
DNA 1: AAACCTGAGACGCCGCGCACAAAGTGCGAAACC
DNA 2: GGTTTCGCACTTTGTGCGCGGCGTCTCAGGTTT
For B1, the binding result in series [1] is on record as “binds”.

B2: 1247p7 (dsDNA)
DNA 1: GGCGTTCGGCTCGGTAAGCCGATGCTCGGCG
DNA 2: CGCCGAGCATCGGCTTACCGAGCCGAACGCC
Take B2: the binding result in series [2] is “binds”.

B3: 3357p7 (dsDNA)
DNA 1: CCACCGTACGGACAACTTGTACCATTGTGGTACAGATTATCCGTACATCTT
DNA 2: AAGATGTACGGATAATCTGTACCACAATGGTACAAGTTGTCCGTACGGTGG
Consider B3, for which the binding result in series [3] and in series [4] was “binds” each time.
